Source: the supplement of paper PMC9112550, “Optimization of the antimicrobial peptide Bac7 by deep mutational scanning” (BMC Biology, 2022)

Test system: Escherichia coli TOP10
Assay: shrunken log2 fold change of peptide-encoding DNA abundance (4.5 h post-induction vs induction); higher = less antimicrobial activity (less host growth inhibition)
Settings: time post-induction: 4.5 h; library: site-saturation at positions 5, 18, 19, 20
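Note: peptides expressed intracellularly from a pBAD plasmid library in pooled LB shake-flask culture, induced with 0.3% L-arabinose, DNA abundance read by NGS, three biological replicates, DESeq2 with apeglm shrinkage.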

| Sequence | shrunken log2 fold change |
| --- | --- |
| RRIRLRPPRLPRPRPRPTSSPRP | -0.178 |
| RRIRERPPRLPRPRPRPFMWPRP | -0.262 |
| RRIRYRPPRLPRPRPRPMWHPRP | -0.156 |
| RRIRKRPPRLPRPRPRPIKAPRP | 0.211 |
| RRIRYRPPRLPRPRPRPCWCPRP | -0.0193 |
| RRIRQRPPRLPRPRPRPCWTPRP | -0.0267 |
| RRIRKRPPRLPRPRPRPNTLPRP | -0.0816 |
| RRIRPRPPRLPRPRPRPVMRPRP | 0.95 |
| RRIRQRPPRLPRPRPRPKSGPRP | 0.631 |
| RRIRERPPRLPRPRPRPTTFPRP | -0.367 |
| RRIRHRPPRLPRPRPRPMSRPRP | -0.0252 |
| RRIRRRPPRLPRPRPRPRGPPRP | 0.871 |
| RRIRGRPPRLPRPRPRPIRYPRP | -0.0811 |
| RRIRWRPPRLPRPRPRPLCNPRP | 0.0306 |
| RRIRSRPPRLPRPRPRPTDPPRP | -0.000503 |
| RRIRRRPPRLPRPRPRPVHVPRP | 0.0562 |
| RRIRTRPPRLPRPRPRPSSCPRP | -0.222 |
| RRIRKRPPRLPRPRPRPPHYPRP | 0.176 |
| RRIRMRPPRLPRPRPRPPFPPRP | 0.671 |
| RRIRYRPPRLPRPRPRPQKRPRP | -0.0426 |
| RRIRHRPPRLPRPRPRPKNAPRP | -0.223 |
| RRIRGRPPRLPRPRPRPIALPRP | 0.16 |
| RRIRKRPPRLPRPRPRPTWHPRP | 0.371 |
| RRIRMRPPRLPRPRPRPTPLPRP | 1.01 |
| RRIRHRPPRLPRPRPRPGAIPRP | -0.15 |

| Sequence | shrunken log2 fold change |
| --- | --- |
| RRIRMRPPRLPRPRPRPHNAPRP | 0.207 |
| RRIRHRPPRLPRPRPRPLRIPRP | 0.156 |
| RRIRHRPPRLPRPRPRPETIPRP | -0.0239 |
| RRIRKRPPRLPRPRPRPFELPRP | -0.000946 |
| RRIRSRPPRLPRPRPRPIFVPRP | 0.0197 |
| RRIRWRPPRLPRPRPRPLLKPRP | -0.0261 |
| RRIRNRPPRLPRPRPRPSGGPRP | 0.0638 |
| RRIRHRPPRLPRPRPRPPIEPRP | -0.809 |
| RRIRDRPPRLPRPRPRPGLFPRP | 0.949 |
| RRIRSRPPRLPRPRPRPYQGPRP | -0.129 |
| RRIRSRPPRLPRPRPRPLGMPRP | -0.243 |
| RRIRYRPPRLPRPRPRPDAEPRP | -0.0535 |
| RRIRERPPRLPRPRPRPFKEPRP | -0.346 |
| RRIRFRPPRLPRPRPRPHEAPRP | -0.377 |
| RRIRNRPPRLPRPRPRPIQFPRP | -0.178 |
| RRIRARPPRLPRPRPRPFDLPRP | 0.0229 |
| RRIRGRPPRLPRPRPRPHKQPRP | 0.0331 |
| RRIRTRPPRLPRPRPRPVAEPRP | 0.191 |
| RRIRIRPPRLPRPRPRPFFFPRP | -0.0692 |
| RRIRERPPRLPRPRPRPVKVPRP | -0.205 |
| RRIRGRPPRLPRPRPRPHDMPRP | -0.204 |
| RRIRMRPPRLPRPRPRPNNGPRP | 0.0562 |
| RRIRHRPPRLPRPRPRPYRYPRP | -0.177 |
| RRIRHRPPRLPRPRPRPMNTPRP | -0.616 |
| RRIRKRPPRLPRPRPRPIVGPRP | 0.117 |

| Sequence | shrunken log2 fold change |
| --- | --- |
| RRIRRRPPRLPRPRPRPSNRPRP | -0.0253 |
| RRIRRRPPRLPRPRPRPNCWPRP | 0.228 |
| RRIRERPPRLPRPRPRPILQPRP | -0.518 |
| RRIRLRPPRLPRPRPRPARFPRP | 0.0674 |
| RRIRSRPPRLPRPRPRPTTDPRP | 0.0457 |
| RRIRCRPPRLPRPRPRPVDAPRP | 0.323 |
| RRIRHRPPRLPRPRPRPDLWPRP | 0.0395 |
| RRIRQRPPRLPRPRPRPTRTPRP | 1.65 |
| RRIRQRPPRLPRPRPRPSWQPRP | -0.0449 |
| RRIRLRPPRLPRPRPRPEEHPRP | 0.00515 |
| RRIRPRPPRLPRPRPRPKWCPRP | 0.0741 |
| RRIRIRPPRLPRPRPRPCPGPRP | -0.372 |
| RRIRERPPRLPRPRPRPQYFPRP | -0.891 |
| RRIRGRPPRLPRPRPRPPCRPRP | 0.637 |
| RRIRIRPPRLPRPRPRPTITPRP | -0.996 |
| RRIRCRPPRLPRPRPRPFFHPRP | -0.364 |
| RRIRNRPPRLPRPRPRPNRKPRP | 2.2 |
| RRIRLRPPRLPRPRPRPLYWPRP | -0.372 |
| RRIRFRPPRLPRPRPRPHAKPRP | 0.229 |
| RRIRKRPPRLPRPRPRPDTVPRP | 0.00611 |
| RRIRNRPPRLPRPRPRPYFTPRP | -0.47 |
| RRIRSRPPRLPRPRPRPCTLPRP | -0.399 |
| RRIRKRPPRLPRPRPRPKKKPRP | 0.0709 |
| RRIRNRPPRLPRPRPRPKEVPRP | 0.0999 |
| RRIRCRPPRLPRPRPRPEFAPRP | 0.375 |

| Sequence | shrunken log2 fold change |
| --- | --- |
| RRIRFRPPRLPRPRPRPWFGPRP | -0.191 |
| RRIRPRPPRLPRPRPRPHGLPRP | 0.026 |
| RRIRFRPPRLPRPRPRPKSVPRP | 0.0124 |
| RRIRQRPPRLPRPRPRPLDPPRP | -0.408 |
| RRIRPRPPRLPRPRPRPTTHPRP | 0.0944 |
| RRIRVRPPRLPRPRPRPLYFPRP | -0.53 |
| RRIRGRPPRLPRPRPRPQACPRP | 0.27 |
| RRIRWRPPRLPRPRPRPGPLPRP | 0.0252 |
| RRIRARPPRLPRPRPRPPKYPRP | -0.109 |
| RRIRDRPPRLPRPRPRPLMMPRP | 0.0576 |
| RRIRLRPPRLPRPRPRPFVWPRP | 0.118 |
| RRIRLRPPRLPRPRPRPDMIPRP | -0.0232 |
| RRIRIRPPRLPRPRPRPGIWPRP | -0.015 |
| RRIRERPPRLPRPRPRPRDCPRP | 0.112 |
| RRIRTRPPRLPRPRPRPGILPRP | -0.0375 |
| RRIRQRPPRLPRPRPRPAVTPRP | 0.167 |
| RRIRCRPPRLPRPRPRPKPKPRP | 0.407 |
| RRIRWRPPRLPRPRPRPVHHPRP | -0.0507 |
| RRIRARPPRLPRPRPRPHKGPRP | 0.187 |
| RRIRWRPPRLPRPRPRPAAPPRP | 0.613 |
| RRIRGRPPRLPRPRPRPNCHPRP | 0.415 |
| RRIRSRPPRLPRPRPRPMAYPRP | -0.0939 |
| RRIRYRPPRLPRPRPRPKNFPRP | -0.663 |
| RRIRHRPPRLPRPRPRPTNEPRP | -0.512 |
| RRIRIRPPRLPRPRPRPQRHPRP | -0.401 |

| Sequence | shrunken log2 fold change |
| --- | --- |
| RRIRNRPPRLPRPRPRPTMDPRP | -0.266 |
| RRIRGRPPRLPRPRPRPCKRPRP | 0.0886 |
| RRIRQRPPRLPRPRPRPGVCPRP | -0.126 |
| RRIRPRPPRLPRPRPRPVRGPRP | 0.898 |
| RRIRFRPPRLPRPRPRPESPPRP | 0.00789 |
| RRIRKRPPRLPRPRPRPQIFPRP | -0.0259 |
| RRIRIRPPRLPRPRPRPRENPRP | 0.0178 |
| RRIRLRPPRLPRPRPRPCNKPRP | -0.686 |
| RRIRIRPPRLPRPRPRPDEPPRP | 0.115 |
| RRIRERPPRLPRPRPRPIACPRP | -0.23 |
| RRIRIRPPRLPRPRPRPLAMPRP | -0.159 |
| RRIRQRPPRLPRPRPRPKLDPRP | 0.168 |
| RRIRARPPRLPRPRPRPEWKPRP | 0.0235 |
| RRIRLRPPRLPRPRPRPKMVPRP | -0.146 |
| RRIRRRPPRLPRPRPRPWVAPRP | 0.219 |
| RRIRPRPPRLPRPRPRPIPCPRP | -0.172 |
| RRIRWRPPRLPRPRPRPCEWPRP | 0.0102 |
| RRIRFRPPRLPRPRPRPWILPRP | -0.144 |
| RRIRRRPPRLPRPRPRPEDEPRP | -0.0165 |
| RRIRHRPPRLPRPRPRPWIVPRP | -0.404 |
| RRIRCRPPRLPRPRPRPFKHPRP | -0.272 |
| RRIRIRPPRLPRPRPRPPCDPRP | -0.48 |
| RRIRYRPPRLPRPRPRPDIHPRP | -0.549 |
| RRIRVRPPRLPRPRPRPDKQPRP | -0.284 |
| RRIRERPPRLPRPRPRPKPIPRP | -0.128 |
